{"source": "patent US20230133118A1", "about": "“COMPOSITIONS AND METHODS FOR TREATING CANCER” (Adagene AG, priority 2020, published 2023)", "key": {"4T1 breast cancer cells": {"tested_on": "4T1 breast cancer cells", "assay": "4T1 breast cancer model, ADG106 with docetaxel", "type": "in vivo, BALB/c mice", "conditions": "5 mg/kg; ADG106 i.p. twice a week 4 doses, Docetaxel i.v. once a week 3 doses", "description": "Tumor growth was monitored twice weekly and is reported as mean tumor volume ±SEM over time."}, "Lewis lung cancer cells": {"tested_on": "Lewis lung cancer cells", "assay": "Lewis lung cancer model, ADG106 with cisplatin", "type": "in vivo, C57BL/6 mice", "conditions": "5 mg/kg i.p.", "from_the_text": "C57BL/6 mice (n=8 per group, female, 6-8 weeks old) were transplanted subcutaneously with 5×10^5 Lewis lung cancer cells. […] Tumor growth was monitored twice weekly and reported as mean tumor volume ±SEM over time."}, "LLC-CD20 cells": {"tested_on": "LLC-CD20 cells", "assay": "LLC-CD20 lung cancer model, ADG106 with rituximab", "type": "in vivo, C57BL/6 mice", "conditions": "10 mg/kg i.p. twice a week for 3 weeks", "from_the_text": "C57BL/6 mice (n=6 per group, female, 6-8 weeks old) were transplanted subcutaneously with 5×10^5 LLC-CD20 cells, a Lewis lung cancer cell line expressing CD20. […] Tumor growth was monitored twice weekly and reported as mean tumor volume ±SEM over time."}, "CD137 [1]": {"target": "T1, CD137 (Homo sapiens, UniProt Q07011)", "T1 sequence (Q07011 24-255)": "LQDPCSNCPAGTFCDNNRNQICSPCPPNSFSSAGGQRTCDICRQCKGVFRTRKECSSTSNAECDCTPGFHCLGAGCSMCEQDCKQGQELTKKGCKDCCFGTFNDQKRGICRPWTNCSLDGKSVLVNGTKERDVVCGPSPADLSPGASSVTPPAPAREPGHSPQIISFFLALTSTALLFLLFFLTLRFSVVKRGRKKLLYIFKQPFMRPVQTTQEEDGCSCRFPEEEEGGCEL", "assay": "Receptor occupancy calculated from drug plasma concentration and KD", "conditions": "0.1 mg/kg, MTD for Urelumab"}, "CD137 [2]": {"target": "T1, CD137", "assay": "Cellular NFκB reporter gene assay (CD137-expressing NFκB-Luc Jurkat reporter cells)", "type": "cell-based", "parameters": "expressed in transfected cells; host or cells: NFκB-Luc Jurkat reporter cells (with or without co-cultured CHO-K1 cells expressing human FcγRIIb)", "procedure": "The CD137-expressing NFκB-Luc Jurkat reporter cells were stimulated with the anti-CD137 antibodies in the absence (left panel) or presence (right panel) of co-cultured CHO-K1 cell expressing human FcγRIIb. Luciferase activity was measured by bioluminescence assay."}, "CD137 [3]": {"target": "T1, CD137", "assay": "Binding affinity (KD) by surface plasmon resonance (SPR)", "conditions": "read-out: binding affinity (KD)"}}}
{"compound": "CC(=O)O[C@@]12CO[C@@H]1C[C@H](O)[C@@]1(C)C(=O)[C@H](O)C3=C(C)[C@@H](OC(=O)[C@H](O)[C@@H](NC(=O)OC(C)(C)C)c4ccccc4)C[C@@](O)([C@@H](OC(=O)c4ccccc4)[C@H]21)C3(C)C", "note": "[Docetaxel, docetaxel, reference compound]", "values": [{"measurement": "anti-tumor activity, mono-therapy", "setting": "4T1 breast cancer cells", "result": "marginal anti-tumor activity"}]}
{"compound": "N.N.[Cl][Pt][Cl]", "note": "[cisplatin, reference compound]", "values": [{"measurement": "anti-tumor activity, monotherapy", "setting": "Lewis lung cancer cells", "result": "showed anti-tumor activity"}]}
{"compound": "Rituximab: anti-CD20 antibody [reference compound]", "values": [{"measurement": "tumor growth, single agent", "setting": "LLC-CD20 cells", "result": "only weakly inhibited tumor growth"}]}
{"compound": "Urelumab: clinical reference anti-CD137 mAb [reference compound]", "values": [{"measurement": "Calculated Receptor Occupancy", "setting": "CD137 [1]", "result": 64, "unit": "%"}, {"measurement": "human CD137 agonism without crosslinking", "setting": "CD137 [2]; no crosslinking", "result": "function as a human CD137 agonist without crosslinking"}, {"measurement": "human CD137 agonism following crosslinking", "setting": "CD137 [2]; with crosslinking", "result": "function as agonists"}, {"measurement": "Kd", "setting": "CD137 [3]", "result": 9.6, "unit": "nM"}]}
